From PMC3877283, “Development of Novel Radiogallium-Labeled Bone Imaging Agents Using Oligo-Aspartic Acid Peptides as Carriers” (PLoS ONE, 2013)
Read-outs that look alike come from different tables or passages of the source. Peptide text beside a SMILES is read from it. * marks the point of attachment. DOTA = O=C(O)CN1CCN(CC(=O)O)CCN(CC(=O)*)CCN(CC(=O)O)CC1

Experiment: Biodistribution experiments in normal mice
Assay type: in vivo, ddY mice
Conditions: for F/B ratio (Femur:blood ratio) / tissue uptake dose at 1 h / tissue uptake dose at 3 h / tissue uptake dose at 10 min: male ddY mice, no pretreatment, mean (SD) for four or five animals
Description: Experiments with animals were conducted in strict accordance with the Guidelines for the Care and Use of Laboratory Animals of Kanazawa University. The animal experimental protocols used were approved by the Committee on Animal Experimentation of Kanazawa University (Permit Number: AP-132633). Biodistribution experiments were performed after an intravenous administration of each diluted tracer solution (37 kBq/100 µL) to 6-week-old male ddY mice (27–32 g, Japan SLC, Inc., Hamamatsu, Japan). To investigate the effect of an excess amount of bisphosphonate on biodistribution, alendronate (20 mg/kg) was intravenously administered to mice 1 minute before the intravenous injection of ^67Ga-DOTA-(Asp)14 or ^67Ga-DOTA-Bn-SCN-HBP. Four to six mice each were sacrificed by decapitation at 10, 60, and 180 minutes post-injection. Tissues of interest were removed and weighed. Complete left femurs were isolated as representative bone samples, radioactivity was determined using an auto well gamma counter, and counts were corrected for background radiation and physical decay during counting.

With `O=C(O)C[C@H](NC(=O)[C@H](CC(=O)O)NC(=O)[C@H](CC(=O)O)NC(=O)[C@H](CC(=O)O)NC(=O)[C@H](CC(=O)O)NC(=O)[C@H](CC(=O)O)NC(=O)[C@H](CC(=O)O)NC(=O)[C@H](CC(=O)O)NC(=O)[C@H](CC(=O)O)NC(=O)[C@H](CC(=O)O)NC(=O)[C@H](CC(=O)O)NC(=O)[C@H](CC(=O)O)NC(=O)[C@H](CC(=O)O)NC(=O)[C@H](CC(=O)O)NC(=O)CN1CCN(CC(=O)O)CCN(CC(=O)O)CCN(CC(=O)O)CC1)C(=O)O` [67Ga-DOTA-(Asp)14, metal not drawn] ({DOTA}-DDDDDDDDDDDDDD-OH) the “F/B ratio (Femur:blood ratio)” value (10 min after i.v. administration) was 6.27 (0.66), the “F/B ratio (Femur:blood ratio)” value (60 min after i.v. administration) was 185.54 (46.89) and the “F/B ratio (Femur:blood ratio)” value (180 min after i.v. administration) was 591.08 (221.41). For the same compound, the tissue uptake dose at 1 h (male, ddY, mouse, in vivo, iv, 37 kBq/100 uL, total radioactivity, Blood, 60 min after i.v. administration, read-out: Radioactivity in Blood) was 0.07 %ID, the tissue uptake dose at 3 h (male, ddY, mouse, in vivo, iv, 37 kBq/100 uL, total radioactivity, Blood, 180 min after i.v. administration, read-out: Radioactivity in Blood) was 0.03 %ID and the tissue uptake dose at 10 min (male, ddY, mouse, in vivo, iv, 37 kBq/100 uL, total radioactivity, Bone (complete left femur), 10 min after i.v. administration, read-out: Radioactivity in Bone (Femur)) was 10.1 %ID. The tissue uptake dose at 1 h (male, ddY, mouse, in vivo, iv, 37 kBq/100 uL, total radioactivity, Bone (complete left femur), 60 min after i.v. administration, read-out: Radioactivity in Bone (Femur)) was 12.8 %ID, the tissue uptake dose at 3 h (male, ddY, mouse, in vivo, iv, 37 kBq/100 uL, total radioactivity, Bone (complete left femur), 180 min after i.v. administration, read-out: Radioactivity in Bone (Femur)) was 13.3 %ID and the tissue uptake dose at 10 min (male, ddY, mouse, in vivo, iv, 37 kBq/100 uL, total radioactivity, Brain, 10 min after i.v. administration, read-out: Radioactivity in Brain) was 0.05 %ID. For the same compound, the tissue uptake dose at 1 h (male, ddY, mouse, in vivo, iv, 37 kBq/100 uL, total radioactivity, Brain, 60 min after i.v. administration, read-out: Radioactivity in Brain) was 0.01 %ID, the tissue uptake dose at 3 h (male, ddY, mouse, in vivo, iv, 37 kBq/100 uL, total radioactivity, Brain, 180 min after i.v. administration, read-out: Radioactivity in Brain) was 0.01 %ID and the tissue uptake dose at 10 min (male, ddY, mouse, in vivo, iv, 37 kBq/100 uL, total radioactivity, Heart, 10 min after i.v. administration, read-out: Radioactivity in Heart) was 0.62 %ID. The tissue uptake dose at 1 h (male, ddY, mouse, in vivo, iv, 37 kBq/100 uL, total radioactivity, Heart, 60 min after i.v. administration, read-out: Radioactivity in Heart) was 0.06 %ID, the tissue uptake dose at 3 h (male, ddY, mouse, in vivo, iv, 37 kBq/100 uL, total radioactivity, Heart, 180 min after i.v. administration, read-out: Radioactivity in Heart) was 0.03 %ID and the tissue uptake dose at 10 min (male, ddY, mouse, in vivo, iv, 37 kBq/100 uL, total radioactivity, Kidney, 10 min after i.v. administration, read-out: Radioactivity in Kidney) was 12.4 %ID. For the same compound, the tissue uptake dose at 1 h (male, ddY, mouse, in vivo, iv, 37 kBq/100 uL, total radioactivity, Kidney, 60 min after i.v. administration, read-out: Radioactivity in Kidney) was 0.99 %ID, the tissue uptake dose at 3 h (male, ddY, mouse, in vivo, iv, 37 kBq/100 uL, total radioactivity, Kidney, 180 min after i.v. administration, read-out: Radioactivity in Kidney) was 0.76 %ID and the tissue uptake dose at 10 min (male, ddY, mouse, in vivo, iv, 37 kBq/100 uL, total radioactivity, Large-intestine, 10 min after i.v. administration, read-out: Radioactivity in Large-intestine) was 0.3 %ID. The tissue uptake dose at 1 h (male, ddY, mouse, in vivo, iv, 37 kBq/100 uL, total radioactivity, Large-intestine, 60 min after i.v. administration, read-out: Radioactivity in Large-intestine) was 0.04 %ID, the tissue uptake dose at 3 h (male, ddY, mouse, in vivo, iv, 37 kBq/100 uL, total radioactivity, Large-intestine, 180 min after i.v. administration, read-out: Radioactivity in Large-intestine) was 0.15 %ID and the tissue uptake dose at 10 min (male, ddY, mouse, in vivo, iv, 37 kBq/100 uL, total radioactivity, Liver, 10 min after i.v. administration, read-out: Radioactivity in Liver) was 0.39 %ID. It also gave a tissue uptake dose at 1 h (male, ddY, mouse, in vivo, iv, 37 kBq/100 uL, total radioactivity, Liver, 60 min after i.v. administration, read-out: Radioactivity in Liver) of 0.05 %ID, a tissue uptake dose at 3 h (male, ddY, mouse, in vivo, iv, 37 kBq/100 uL, total radioactivity, Liver, 180 min after i.v. administration, read-out: Radioactivity in Liver) of 0.05 %ID and a tissue uptake dose at 10 min (male, ddY, mouse, in vivo, iv, 37 kBq/100 uL, total radioactivity, Lung, 10 min after i.v. administration, read-out: Radioactivity in Lung) of 1.19 %ID. For the same compound, the tissue uptake dose at 1 h (male, ddY, mouse, in vivo, iv, 37 kBq/100 uL, total radioactivity, Lung, 60 min after i.v. administration, read-out: Radioactivity in Lung) was 0.08 %ID, the tissue uptake dose at 3 h (male, ddY, mouse, in vivo, iv, 37 kBq/100 uL, total radioactivity, Lung, 180 min after i.v. administration, read-out: Radioactivity in Lung) was 0.03 %ID and the tissue uptake dose at 10 min (male, ddY, mouse, in vivo, iv, 37 kBq/100 uL, total radioactivity, Muscle, 10 min after i.v. administration, read-out: Radioactivity in Muscle) was 0.57 %ID. The tissue uptake dose at 1 h (male, ddY, mouse, in vivo, iv, 37 kBq/100 uL, total radioactivity, Muscle, 60 min after i.v. administration, read-out: Radioactivity in Muscle) was 0.08 %ID, the tissue uptake dose at 3 h (male, ddY, mouse, in vivo, iv, 37 kBq/100 uL, total radioactivity, Muscle, 180 min after i.v. administration, read-out: Radioactivity in Muscle) was 0.05 %ID and the tissue uptake dose at 10 min (male, ddY, mouse, in vivo, iv, 37 kBq/100 uL, total radioactivity, Pancreas, 10 min after i.v. administration, read-out: Radioactivity in Pancreas) was 0.5 %ID. It also gave a tissue uptake dose at 1 h (male, ddY, mouse, in vivo, iv, 37 kBq/100 uL, total radioactivity, Pancreas, 60 min after i.v. administration, read-out: Radioactivity in Pancreas) of 0.07 %ID, a tissue uptake dose at 3 h (male, ddY, mouse, in vivo, iv, 37 kBq/100 uL, total radioactivity, Pancreas, 180 min after i.v. administration, read-out: Radioactivity in Pancreas) of 0.03 %ID and a tissue uptake dose at 10 min (male, ddY, mouse, in vivo, iv, 37 kBq/100 uL, total radioactivity, Small-intestine, 10 min after i.v. administration, read-out: Radioactivity in Small-intestine) of 0.38 %ID. It also gave a tissue uptake dose at 1 h (male, ddY, mouse, in vivo, iv, 37 kBq/100 uL, total radioactivity, Small-intestine, 60 min after i.v. administration, read-out: Radioactivity in Small-intestine) of 0.08 %ID, a tissue uptake dose at 3 h (male, ddY, mouse, in vivo, iv, 37 kBq/100 uL, total radioactivity, Small-intestine, 180 min after i.v. administration, read-out: Radioactivity in Small-intestine) of 0.05 %ID and a tissue uptake dose at 10 min (male, ddY, mouse, in vivo, iv, 37 kBq/100 uL, total radioactivity, Spleen, 10 min after i.v. administration, read-out: Radioactivity in Spleen) of 0.42 %ID. For the same compound, the tissue uptake dose at 1 h (male, ddY, mouse, in vivo, iv, 37 kBq/100 uL, total radioactivity, Spleen, 60 min after i.v. administration, read-out: Radioactivity in Spleen) was 0.07 %ID, the tissue uptake dose at 3 h (male, ddY, mouse, in vivo, iv, 37 kBq/100 uL, total radioactivity, Spleen, 180 min after i.v. administration, read-out: Radioactivity in Spleen) was 0.03 %ID and the tissue uptake dose at 10 min (male, ddY, mouse, in vivo, iv, 37 kBq/100 uL, total radioactivity, Stomach (footnote b), 10 min after i.v. administration, read-out: Radioactivity in Stomach) was 0.24 %ID. The tissue uptake dose at 1 h (male, ddY, mouse, in vivo, iv, 37 kBq/100 uL, total radioactivity, Stomach (footnote b), 60 min after i.v. administration, read-out: Radioactivity in Stomach) was 0.1 %ID, the tissue uptake dose at 3 h (male, ddY, mouse, in vivo, iv, 37 kBq/100 uL, total radioactivity, Stomach (footnote b), 180 min after i.v. administration, read-out: Radioactivity in Stomach) was 0.02 %ID and the tissue uptake at 1 h (male, ddY, mouse, in vivo, iv, 37 kBq/100 uL, total radioactivity, 60 min after injection, mice, read-out: accumulation in bone) was 12.8 ± 1.7 %ID/g. For the same compound, the tissue uptake dose at 10 min (mouse, in vivo, iv, 37 kBq/100 uL, total radioactivity, Blood, 10 min after i.v. administration (37 kBq/100 µL), gamma counter, read-out: Radioactivity in Blood) was 1.61 %ID and the “accumulation of radioactivity in the femur (in words)” value (normal mice, i.v.) was “higher accumulation”.
